Source: the supplement of paper PMC9112550, “Optimization of the antimicrobial peptide Bac7 by deep mutational scanning” (BMC Biology, 2022)

tested on: Escherichia coli TOP10; assay: shrunken log2 fold change of peptide-encoding DNA abundance (4.5 h post-induction vs induction); higher = less antimicrobial activity (less host growth inhibition); details: time post-induction: 4.5 h; library: site-saturation at positions 5, 18, 19, 20
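Also: peptides expressed intracellularly from a pBAD plasmid library in pooled LB shake-flask culture, induced with 0.3% L-arabinose, DNA abundance read by NGS, three biological replicates, DESeq2 with apeglm shrinkage.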

Row | Sequence | shrunken log2 fold change
1 | RRIRPRPPRLPRPRPRPCNKPRP | -0.102
2 | RRIRPRPPRLPRPRPRPCNVPRP | -0.314
3 | RRIRPRPPRLPRPRPRPCPLPRP | -0.208
4 | RRIRPRPPRLPRPRPRPCRIPRP | -0.00277
5 | RRIRPRPPRLPRPRPRPCRWPRP | 0.0987
6 | RRIRPRPPRLPRPRPRPCSAPRP | 0.199
7 | RRIRPRPPRLPRPRPRPCTPPRP | -0.167
8 | RRIRPRPPRLPRPRPRPCVQPRP | 0.283
9 | RRIRPRPPRLPRPRPRPCWFPRP | -0.0933
10 | RRIRPRPPRLPRPRPRPCWRPRP | 0.00714
11 | RRIRPRPPRLPRPRPRPCYSPRP | -0.507
12 | RRIRPRPPRLPRPRPRPDCTPRP | -0.167
13 | RRIRPRPPRLPRPRPRPDEGPRP | -0.188
14 | RRIRPRPPRLPRPRPRPDEYPRP | -0.015
15 | RRIRPRPPRLPRPRPRPDGDPRP | 0.152
16 | RRIRPRPPRLPRPRPRPDHPPRP | -0.147
17 | RRIRPRPPRLPRPRPRPDHQPRP | -0.0869
18 | RRIRPRPPRLPRPRPRPDINPRP | -0.673
19 | RRIRPRPPRLPRPRPRPDLQPRP | -0.221
20 | RRIRPRPPRLPRPRPRPDNGPRP | -0.332
21 | RRIRPRPPRLPRPRPRPDNVPRP | 0.115
22 | RRIRPRPPRLPRPRPRPDPDPRP | -0.0832

Row | Sequence | shrunken log2 fold change
23 | RRIRPRPPRLPRPRPRPDPGPRP | 0.0845
24 | RRIRPRPPRLPRPRPRPDRIPRP | -0.15
25 | RRIRPRPPRLPRPRPRPDRNPRP | -0.0925
26 | RRIRPRPPRLPRPRPRPDRPPRP | -0.0807
27 | RRIRPRPPRLPRPRPRPDWIPRP | -0.444
28 | RRIRPRPPRLPRPRPRPDYIPRP | -1.2
29 | RRIRPRPPRLPRPRPRPEAGPRP | 0.566
30 | RRIRPRPPRLPRPRPRPEAQPRP | 0.904
31 | RRIRPRPPRLPRPRPRPECRPRP | 0.56
32 | RRIRPRPPRLPRPRPRPECVPRP | 0.541
33 | RRIRPRPPRLPRPRPRPEDQPRP | 0.106
34 | RRIRPRPPRLPRPRPRPEEFPRP | -0.0108
35 | RRIRPRPPRLPRPRPRPEETPRP | -0.131
36 | RRIRPRPPRLPRPRPRPELIPRP | 0.0313
37 | RRIRPRPPRLPRPRPRPELSPRP | 0.46
38 | RRIRPRPPRLPRPRPRPEMGPRP | 0.268
39 | RRIRPRPPRLPRPRPRPEMMPRP | 0.00381
40 | RRIRPRPPRLPRPRPRPENTPRP | 0.11
41 | RRIRPRPPRLPRPRPRPEPHPRP | 0.298
42 | RRIRPRPPRLPRPRPRPESNPRP | 0.0165
43 | RRIRPRPPRLPRPRPRPETYPRP | -0.0102
44 | RRIRPRPPRLPRPRPRPEVHPRP | 0.551

Row | Sequence | shrunken log2 fold change
45 | RRIRPRPPRLPRPRPRPEYMPRP | -0.193
46 | RRIRPRPPRLPRPRPRPFGVPRP | -0.112
47 | RRIRPRPPRLPRPRPRPFHQPRP | -0.216
48 | RRIRPRPPRLPRPRPRPFKSPRP | -0.222
49 | RRIRPRPPRLPRPRPRPFLCPRP | -0.0669
50 | RRIRPRPPRLPRPRPRPFLNPRP | -0.622
51 | RRIRPRPPRLPRPRPRPFLTPRP | -0.254
52 | RRIRPRPPRLPRPRPRPFLYPRP | -0.138
53 | RRIRPRPPRLPRPRPRPFMHPRP | 0.0361
54 | RRIRPRPPRLPRPRPRPFMQPRP | -0.396
55 | RRIRPRPPRLPRPRPRPFNQPRP | -0.695
56 | RRIRPRPPRLPRPRPRPFPAPRP | -0.161
57 | RRIRPRPPRLPRPRPRPFPEPRP | 0.0208
58 | RRIRPRPPRLPRPRPRPFPFPRP | -0.00615
59 | RRIRPRPPRLPRPRPRPFQGPRP | -0.0115
60 | RRIRPRPPRLPRPRPRPFSKPRP | -0.0785
61 | RRIRPRPPRLPRPRPRPFTHPRP | -0.466
62 | RRIRPRPPRLPRPRPRPFTIPRP | -0.0323
63 | RRIRPRPPRLPRPRPRPFTPPRP | -0.112
64 | RRIRPRPPRLPRPRPRPFVPPRP | 0.0581
65 | RRIRPRPPRLPRPRPRPFVWPRP | -0.0428
66 | RRIRPRPPRLPRPRPRPFWWPRP | 0.55

Row | Sequence | shrunken log2 fold change
67 | RRIRPRPPRLPRPRPRPGCFPRP | 0.158
68 | RRIRPRPPRLPRPRPRPGDTPRP | -0.0266
69 | RRIRPRPPRLPRPRPRPGFWPRP | 0.61
70 | RRIRPRPPRLPRPRPRPGGSPRP | 0.166
71 | RRIRPRPPRLPRPRPRPGHGPRP | 0.296
72 | RRIRPRPPRLPRPRPRPGHLPRP | 0.234
73 | RRIRPRPPRLPRPRPRPGIYPRP | -0.133
74 | RRIRPRPPRLPRPRPRPGMIPRP | 0.0107
75 | RRIRPRPPRLPRPRPRPGNLPRP | -0.376
76 | RRIRPRPPRLPRPRPRPGNWPRP | 0.0527
77 | RRIRPRPPRLPRPRPRPGPEPRP | 0.213
78 | RRIRPRPPRLPRPRPRPGPLPRP | 0.193
79 | RRIRPRPPRLPRPRPRPGQHPRP | 0.0653
80 | RRIRPRPPRLPRPRPRPGQNPRP | 0.0194
81 | RRIRPRPPRLPRPRPRPGRTPRP | 0.153
82 | RRIRPRPPRLPRPRPRPGSFPRP | 0.0277
83 | RRIRPRPPRLPRPRPRPGTFPRP | -0.226
84 | RRIRPRPPRLPRPRPRPGTWPRP | 0.0893
85 | RRIRPRPPRLPRPRPRPGVFPRP | 0.144
86 | RRIRPRPPRLPRPRPRPGVHPRP | -0.0724
87 | RRIRPRPPRLPRPRPRPGVWPRP | 0.54
88 | RRIRPRPPRLPRPRPRPGWWPRP | 0.356

Row | Sequence | shrunken log2 fold change
89 | RRIRPRPPRLPRPRPRPGYHPRP | -0.506
90 | RRIRPRPPRLPRPRPRPGYIPRP | -0.553
91 | RRIRPRPPRLPRPRPRPHCTPRP | -0.479
92 | RRIRPRPPRLPRPRPRPHDIPRP | 0.152
93 | RRIRPRPPRLPRPRPRPHEQPRP | 0.0602
94 | RRIRPRPPRLPRPRPRPHHHPRP | -0.532
95 | RRIRPRPPRLPRPRPRPHHLPRP | -0.0444
96 | RRIRPRPPRLPRPRPRPHHVPRP | 0.0547
97 | RRIRPRPPRLPRPRPRPHIAPRP | -0.392
98 | RRIRPRPPRLPRPRPRPHIGPRP | 0.0387
99 | RRIRPRPPRLPRPRPRPHLYPRP | -0.192
100 | RRIRPRPPRLPRPRPRPHPQPRP | 0.238
101 | RRIRPRPPRLPRPRPRPHPTPRP | 0.17
102 | RRIRPRPPRLPRPRPRPHPYPRP | -0.576
103 | RRIRPRPPRLPRPRPRPHQFPRP | -0.0896
104 | RRIRPRPPRLPRPRPRPHQYPRP | -0.623
105 | RRIRPRPPRLPRPRPRPHRHPRP | -0.47
106 | RRIRPRPPRLPRPRPRPHRSPRP | 0.0256
107 | RRIRPRPPRLPRPRPRPHSNPRP | -0.316
108 | RRIRPRPPRLPRPRPRPHTGPRP | -0.0698
109 | RRIRPRPPRLPRPRPRPHVQPRP | -0.0151
